From article PMC10257657 (Nature Communications, 2023) come the findings set out here.

This series deals with the molecule itself. Kind of series: AUC; analytical ultracentrifugation of VibO (Supplementary Fig. 24b); conditions not shown.

B1: VibO, NADPH/FAD-dependent monooxygenase (oxepinone-forming enzyme) of Boreostereum vibrans (enzyme)
chain: MAAVENFEGYVEPELFERPGTSLPNKLGVMPQLTWPNVLNGTNCEKPAVPNYKPPSKVDVIIIGAGPVGLTTAACLLRQGITVRILDRSPHPLPVGRADGLQPRSMEVFDLLGLGEEVYHVGIRVEHTTVYKDGKQHIFAESHQAPGNEAHYTGLHACTQTEVEHLLIRDLIRHDILVERPCTATSYTFDEEADASVTHPITVNITNEATGAEEVVTARFLVGSDGAHSMIRKSLPIEFPGVKTDLHWGIVDAVINSDFPHRWTFGTVLNSEYGGCLIIPRERNMVRLYVQLRAEPGKAFDHSKWGPEEILVILNKVFAPYTLSYAEPVDWYTILTINERVATSFTYKDRIFLAGDSCHVHSAKGAFGMNTGVMDAHNLAWKLAMLCRGIAKPSLLASYDVERRENALRAVATSARYLRFVGNCTFQAIDGSGEVDKEADELVVPPGEDKDVFYFKKFVGQVGRFLIGLDVDYAENALNKLSPAVSRARAGYRASNPRVALSRSHSGRLYHSFGHLGQFTLLVFASNMGGALNAKLHALDSYLAGPSSFYHAYGGADTFKIVVVVRATPSQADQRVKTFPFLSKAGHTVYDDQLPLSHFGGDAHALYGVSHEEGAIVVVRPDSWIGTSSTISDARSLESYFDGFLFKSTEGSY
Consider B1, for which the stoichiometry N (commonly the number of molecules, sites or subunits per partner or assembly) was determined as 2.
